Article PMC4860851 (Cell Discovery, 2015)

How the values were obtained:
[1] = target: Recombinant H1 HA with His Tag from Influenza A/Brisbane/59/2007 H1N1; assay: SPR; conditions: read off a plot
[2] = target: T1, HA Ig (extracellular part of the HA protein of PR8 influenza fused to human IgG1), biotin-conjugated (influenza A/Puerto Rico/8/34 H1N1 (PR8), UniProt P03452 18-528, biotin); assay: far-Western, overlay or dot blot; conditions: both partners purified
T1 construct: also called biotinylated HA Ig

[3] = FACS surface staining of BW transfectants; conditions: glycan lost; control: WT Ncr1 zeta
[4] = full-length expression in HEK 293T (data not shown); conditions: glycan lost; control: WT full-length Ncr1
[5] = recognition of fusion proteins by eight anti-Ncr1 mAbs; conditions: glycan lost; control: WT Ncr1 Ig
[6] = FACS, lentiviral expression in IL2-activated human NK cells; conditions: glycan lost; control: WT full-length Ncr1

Row | Molecule | response ([1]; parent: est. 190) | response ([1]; parent: est. 380) | response ([1]; parent: est. 560) | response ([1]; parent: est. 700) | binding result [2] | expression_or_secretion [3] | localisation_or_trafficking [4] | stability_or_folding [5] | expression_or_secretion [6]
1 | Ncr1 Ig fusion protein (extracellular part of mouse Ncr1 fused to human IgG1) (from UniProt Q8C567) T222A; T225A | 35 RU | 85 RU | 150 RU | 210 RU |  |  |  |  | 
2 | Ncr1 Ig fusion protein (extracellular part of mouse Ncr1 fused to human IgG1) (Fc fusion, UniProt Q8C567 17-255, looked up, Carries N-linked glycans (N139, N216, N238) and putative O-linked glycans (T222, T225); also called WT Ncr1 Ig; WT Ncr1) QRINTEKETLPKPIIWAKPSIMVTNGNSVNIWCQGAQSASEYQLYFEGSFFALERPKPSRSMNKVRFFISQMTSHTAGIYTCFYQSGELWSKSSNPLKLVVTGLYDTPNLWVYPRPEVTLGENVTFFCQLKTATSKFFLLKERGSNHIQNKYGNIQAEFPMGPVTRAHRGTYRCFGSYNDYAWSFPSEPVTLLITGGVENSSLAPTDPTSSLDYWEFDLSTNESGLQKDSAFWDHTTQN |  |  |  |  | binds |  |  |  | 
3 | Ncr1: Ncr1 T222A (protein) parent chain: MLPTLTALLCLGLCLSQRINTEKETLPKPIIWAKPSIMVTNGNSVNIWCQGAQSASEYQLYFEGSFFALERPKPSRSMNKVRFFISQMTSHTAGIYTCFYQSGELWSKSSNPLKLVVTGLYDTPNLWVYPRPEVTLGENVTFFCQLKTATSKFFLLKERGSNHIQNKYGNIQAEFPMGPVTRAHRGTYRCFGSYNDYAWSFPSEPVTLLITGGVENSSLAPTDPTSSLDYWEFDLSTNESGLQKDSAFWDHTTQNLIRIGLACIILITLVWLLTEDWLSKRKDHEEANRLTNWECRRRWRMQHYFEEEQRNAISMMELKATPGAL |  |  |  |  |  | no change | no change | no change | 
4 | Ncr1: Ncr1 N139 216 238A (protein) parent chain: MLPTLTALLCLGLCLSQRINTEKETLPKPIIWAKPSIMVTNGNSVNIWCQGAQSASEYQLYFEGSFFALERPKPSRSMNKVRFFISQMTSHTAGIYTCFYQSGELWSKSSNPLKLVVTGLYDTPNLWVYPRPEVTLGENVTFFCQLKTATSKFFLLKERGSNHIQNKYGNIQAEFPMGPVTRAHRGTYRCFGSYNDYAWSFPSEPVTLLITGGVENSSLAPTDPTSSLDYWEFDLSTNESGLQKDSAFWDHTTQNLIRIGLACIILITLVWLLTEDWLSKRKDHEEANRLTNWECRRRWRMQHYFEEEQRNAISMMELKATPGAL |  |  |  |  |  | decreases | decreases | no change | abolishes
5 | Ncr1: Ncr1 T222 225A (protein) parent chain: MLPTLTALLCLGLCLSQRINTEKETLPKPIIWAKPSIMVTNGNSVNIWCQGAQSASEYQLYFEGSFFALERPKPSRSMNKVRFFISQMTSHTAGIYTCFYQSGELWSKSSNPLKLVVTGLYDTPNLWVYPRPEVTLGENVTFFCQLKTATSKFFLLKERGSNHIQNKYGNIQAEFPMGPVTRAHRGTYRCFGSYNDYAWSFPSEPVTLLITGGVENSSLAPTDPTSSLDYWEFDLSTNESGLQKDSAFWDHTTQNLIRIGLACIILITLVWLLTEDWLSKRKDHEEANRLTNWECRRRWRMQHYFEEEQRNAISMMELKATPGAL |  |  |  |  |  | no change | no change | no change | no change
6 | Ncr1: Ncr1 T225A (protein) parent chain: MLPTLTALLCLGLCLSQRINTEKETLPKPIIWAKPSIMVTNGNSVNIWCQGAQSASEYQLYFEGSFFALERPKPSRSMNKVRFFISQMTSHTAGIYTCFYQSGELWSKSSNPLKLVVTGLYDTPNLWVYPRPEVTLGENVTFFCQLKTATSKFFLLKERGSNHIQNKYGNIQAEFPMGPVTRAHRGTYRCFGSYNDYAWSFPSEPVTLLITGGVENSSLAPTDPTSSLDYWEFDLSTNESGLQKDSAFWDHTTQNLIRIGLACIILITLVWLLTEDWLSKRKDHEEANRLTNWECRRRWRMQHYFEEEQRNAISMMELKATPGAL |  |  |  |  |  | no change | no change | no change | 
